In patent publication US20140228540A1, “POLYPEPTIDES THAT BIND TISSUE INHIBITOR OF METALLOPROTEINASE TYPE THREE (TIMP-3), COMPOSITIONS AND METHODS” (Amgen Inc., priority 2009, published 2014):

T1: inhibition of MMP-13 by TIMP-3 (Homo sapiens, UniProt P35625)
T1 construct: purchased Calbiochem/EMD (active MMP-13)
T1 sequence (P35625 24-211): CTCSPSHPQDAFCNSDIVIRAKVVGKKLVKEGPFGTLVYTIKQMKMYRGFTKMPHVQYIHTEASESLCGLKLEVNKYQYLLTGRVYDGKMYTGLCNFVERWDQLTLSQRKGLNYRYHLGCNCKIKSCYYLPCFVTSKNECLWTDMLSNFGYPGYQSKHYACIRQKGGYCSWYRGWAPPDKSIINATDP

B1: Cluster II: LRP-1 peptide, amino acids 854-1184 of LRP-1; contains 8 ligand binding domains (protein)
chain: CQPGEFACANSRCIQERWKCDGDNDCLDNSDEAPALCHQHTCPSDRFKCENNRCIPNRWLCDGDNDCGNSEDESNATCSARTCPPNQFSCASGRCIPISWTCDLDDDCGDRSDESASCAYPTCFPLTQFTCNNGRCININWRCDNDNDCGDNSDEAGCSHSCSSTQFKCNSGRCIPEHWTCDGDNDCGDYSDETHANCTNQATRPPGGCHTDEFQCRLDGLCIPLRWRCDGDTDCMDSSDEKSCEGVTHVCDPSVKFGCKDSARCISKAWVCDGDNDCEDNSDEENCESLACRPPSHPCANNTSVCLPPDKLCDGNDDCGDGSDEGELCDQ
B2: TIMP-3: tissue inhibitor of metalloproteinase 3, recombinant (protein, UniProt P35625 24-211, looked up)
Metalloproteinase inhibitor 3: T1 sequence (P35625 24-211)

Legend:
[1] = target: T1, inhibition of MMP-13 by TIMP-3; test: MMP-13 inhibition assay: effect of test molecules on inhibition of MMP-13 by TIMP-3; assay type: biochemical
Procedure: Briefly, test molecules are titrated in assay buffer and added to black polystyrene 96 or 384 well assay plate (Griener Bio-One, Germany). The concentrations of the test molecules are dependant on the activity of the molecule; for example, titrations may begin at 1000, 2000 or 3000 nM and use five-fold dilutions for titration, although other types of titrations may be used or a single concentration may be tested. […] Active MMP-13 (Calbiochem/EMD,) is diluted in assay buffer to give a final assay concentration of 1.46 nM added to the test molecule titration/TIMP-3 mixture and incubated for 10 minutes at room temperature in a final volume of 50 microL. Alternatively, pro-MMP-13 (R & D Systems, Minneapolis, Minn.) is activated with aminophenyl mercuric acetate (APMA; Calbiochem/EMD,) for 2 hours at 37 degrees C., and used in the assay.
A fluorogenic substrate such as Mca-PLGL-Dpa-AR-NH2 Fluorogenic MMP Substrate or Mca-KPLGL-Dpa-AR-NH2 Fluorogenic Peptide Substrate (R & D Systems) is prepared to a final assay concentration of 20 microM in assay buffer, and added to the MMP-13 enzyme/huTIMP-3/test molecule solution. MMP-13 activity is measured kinetically for 20 minutes using Molecular Devices fluorescent plate reader. The effect of the molecules being tested is expressed as percent of expected maximum TIMP-3 inhibition of MMP-13 enzymatic activity.

HTB-94 cells = test: Accumulation of TIMP-3 in the medium of cultured HTB-94 cells; assay type: cell-based
Procedure: This example describes an assay to evaluate the accumulation of TIMP-3 in the medium of cultured cells. HTB-94™ cells (a chondrocytic cell line available from the American Type Culture Collection, Manassas, Va.) are plated to 24-well tissue culture plates at 1×10̂5 cells per well in 1 ml growth medium (RPM11640, 10% FBS, 1% PSG), and incubated at 37 C, 5% CO2 overnight. The cells are then washed once with PBS, and the wells are replenished with 250 microL serum-free medium (RPM11640, 1% PSG; designated SF in the tables below) to which is added the polypeptide being tested or a control (for example medium containing heparin, 1 mg/ml). Proteins to be tested are diluted to appropriate concentrations, for example as shown in the Tables below, and added to the cells. Cells are then incubated at 37 C, 5% CO2 for two additional days, day 2 conditioned medium (CM) samples are collected and clarified by centrifugation (i.e., for 5 minutes at 10K RPM) and the supernatant fluid is collected and stored at −20 C until assayed. Analysis is done on 100 microL CM samples, either by Western blot or by using a standard human TIMP-3 ELISA as per the manufacturer's protocol (R&D Systems Inc., Minneapolis, Minn.).

TIMP-3 = test: Binding ELISA of LRP-1 peptides to TIMP-3 (Table 2; format and species not specified); parameters: species or system human or mouse
MMP-13 = MMP-13 (Homo sapiens, UniProt P45452); test: TIMP-3 inhibition of MMP-13 (TIMP-3 alone); assay type: biochemical; details: TIMP-3 at 0.25 nM, 1.5 nM MMP-13, absence of any antibody
Source text: This Example described MMP-13 Inhibition Assays useful for measuring the effect(s) of TIMP-3 binding proteins (also referred to as test molecules, including LRP-1 peptides and antibodies to TIMP-3) on the ability of TIMP-3 to inhibit MMP-13. First, a titration of TIMP-3 inhibition of MMP-13 is run to empirically determine the IC50 of TIMP-3. […] Briefly, test molecules are titrated in assay buffer and added to black polystyrene 96 or 384 well assay plate (Griener Bio-One, Germany). […] Then recombinant TIMP-3 is diluted in assay buffer (20 mM Tris, 10 mM CaCl2, 10 uM ZnCl2, 0.01% Brij 35 (Calbiochem/EMD, San Diego, Calif.), pH 7.5) to a previously determined concentration (for example, TIMP-3's IC70 with 3 nM being a typical concentration), added to the test molecules and rotated for 10 minutes at room temperature. […]
None of the 22 antibodies evaluated adversely affected the ability of TIMP-3 to inhibit MMP-13, nor did they have an effect upon MMP-13 itself. In the TIMP-3 accumulation assay, the antibodies were evaluated for reproducible, titratable increase in the accumulation of TIMP-3 in supernatant fluid at levels of at least about 1.5 times higher than that observed with a negative control antibody. […]

cartilage-explants = details: addition of the protein to explants; cited from earlier work
[2] = test system: rat medial meniscal tear model of osteoarthritis; details: intra-articular injection; cited from earlier work

| Molecule | Effect on TIMP-3's inhibition of MMP-13 (in words) [1] | TIMP-3 (ng/ml) in conditioned medium (HTB-94 cells; Table 5, polypeptide 0.5 microM, listed as C II (prep 1)) [ng/mL] | TIMP-3 (ng/ml) in conditioned medium (HTB-94 cells; Table 5, polypeptide 0.5 microM, listed as C II (prep 2)) [ng/mL] | TIMP-3 (ng/ml) in conditioned medium (HTB-94 cells; Table 5, polypeptide 1 microM, listed as C II (prep 1)) [ng/mL] | TIMP-3 (ng/ml) in conditioned medium (HTB-94 cells; Table 5, polypeptide 1 microM, listed as C II (prep 2)) [ng/mL] | TIMP-3 (ng/ml) in conditioned medium (HTB-94 cells; Table 5, polypeptide 2 microM, listed as C II (prep 1)) [ng/mL] | TIMP-3 (ng/ml) in conditioned medium (HTB-94 cells; Table 5, polypeptide 2 microM, listed as C II (prep 2)) [ng/mL] | TIMP-3 (ng/ml) in conditioned medium (HTB-94 cells; Table 6, peptides 2 microM) [ng/mL] | TIMP-3 (ng/ml) in conditioned medium (HTB-94 cells; Table 7, peptides 2 microM) [ng/mL] | TIMP-3 (ng/ml) in conditioned medium (HTB-94 cells; Table 8, polypeptide 0.5 microM) [ng/mL] | TIMP-3 (ng/ml) in conditioned medium (HTB-94 cells; Table 8, polypeptide 1 microM) [ng/mL] | TIMP-3 (ng/ml) in conditioned medium (HTB-94 cells; Table 8, polypeptide 2 microM) [ng/mL] | Accumulation of TIMP-3 in conditioned medium by Western blot (HTB-94 cells; Western blot) | Binding to TIMP-3 (affinity, in words) (TIMP-3) | inhibition of MMP-13 activity (MMP-13) [%] | cytokine-induced degradation of cartilage-explants (cartilage-explants) | cartilage damage [2] |
| --- | --- | --- | --- | --- | --- | --- | --- | --- | --- | --- | --- | --- | --- | --- | --- | --- | --- |
| B1 | minimal effect | 1.99 | 1.35 | 2.23 | 1.71 | 5.18 | 1.92 | 8.49 | 13.42 | 1.59 | 1.94 | 2.76 | enhanced accumulation of TIMP-3 | submicromolar affinity |  |  |  |
| B2 |  |  |  |  |  |  |  |  |  |  |  |  |  |  | 54 | prevents cytokine-induced degradation | reduces cartilage damage |
